The record followed here is paper PMC8514705.

The assay addresses recombinant DR4 extracellular domain (UniProt O00220).

Chain of recombinant DR4 extracellular domain (O00220 24-239): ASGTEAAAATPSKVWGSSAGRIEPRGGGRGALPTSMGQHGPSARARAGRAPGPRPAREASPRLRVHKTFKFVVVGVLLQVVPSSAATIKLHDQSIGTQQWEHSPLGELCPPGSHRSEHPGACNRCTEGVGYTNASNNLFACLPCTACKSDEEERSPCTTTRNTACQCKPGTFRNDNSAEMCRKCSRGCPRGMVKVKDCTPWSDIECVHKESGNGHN

On to “TRAIL (tumor necrosis factor-associated ligand inducing apoptosis), recombinant, amino acid residues 114-280 (from UniProt P50591 114-280)”, for which the decrease of surface DR4 on HCT116 and HT-29 cells with 1,000 ng/ml TRAIL, time course, flow cytometry amounted to 90%.
